IntAct's records for PubMed 12393858

Target: ipp2_human PPP1R2 (UniProt P41236)
Sequence (P41236 whole entry): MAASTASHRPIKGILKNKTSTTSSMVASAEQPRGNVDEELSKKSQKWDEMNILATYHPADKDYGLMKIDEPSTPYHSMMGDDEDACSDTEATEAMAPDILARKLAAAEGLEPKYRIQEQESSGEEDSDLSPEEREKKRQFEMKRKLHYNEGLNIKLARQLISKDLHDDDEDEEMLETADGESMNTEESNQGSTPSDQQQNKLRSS

effect of a mutation on the interaction: disrupting interaction
Substance: Serine/threonine-protein kinase LMTK2 (Homo sapiens), Q8IWU2 V1356A;F1358A
